Assay results from the supplement of paper PMC10724198.
± gives the standard deviation of the averaged measurements.

Tested on: Saccharomyces cerevisiae
Assay: protein stability index of tFT-peptide fusion (C-terminal peptide) (PSI (0-1 scale)); higher = more stable (slower turnover)
Settings: genetic background: wild type; temperature: 30 C
Description: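 Multiplexed protein stability (MPS) profiling in S. cerevisiae. Random 12-aa peptides (tFT-X12 library) are fused to the C-terminus of a sfGFP-mCherry tandem fluorescent timer, after mCherry and a GGGS linker. Cells are FACS-sorted into 8 mCherry/sfGFP bins and deep-sequenced. The protein stability index (PSI) is the read-weighted bin average, scaled from 0 (unstable) to 1 (stable). Only peptides with >10 reads are reported; cells were grown at 30 °C in SC-His with glucose.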
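Note: PSI is a weighted mean of sequencing reads over stability bins, variants kept only with over 10 reads, mCherry proximal and sfGFP distal, peptide attached via GGGS linker.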

Sequence	protein stability index
PPNGAATTQDRL	0.699 ± 0.011
PPPLPPICTRPI	0.627 ± 0.099
TKIKKKTQEGSR	0.698 ± 0.029
PSPALLILPPYS	0.672 ± 0.016
LPSLTPPPLLLS	0.582 ± 0.0083
YEMTGHVVTHEI	0.69 ± 0.075
QIYKISKKKKQK	0.676 ± 0.055
PPPPPRPRSLLS	0.711 ± 0.063
VSSCSGVLLCVP	0.544 ± 0.016
SPRHNALHFTLV	0.644 ± 0.032
PPYFFPSDPRPD	0.748 ± 0.067
RSPPPVPELTRL	0.7042 ± 0.0051
KEEAKRPQSNET	0.706 ± 0.02
FLRVVGFVCRWG	0.679 ± 0.025
KYVYFAPVLDVI	0.659 ± 0.033
TSFAPPSLPRHS	0.735 ± 0.056
VEYSVVDKRLLY	0.651 ± 0.065
GGGRAEPLEPGV	0.648 ± 0.07
PPPLHPPPPPPA	0.704 ± 0.037
PPPTPPSRILPA	0.699 ± 0.016
TGWSRTTVGFAT	0.711 ± 0.046
IKKKKRRKEQEK	0.7477 ± 0.0035
FSHLLPAESPYP	0.654 ± 0.086
EVDHLPHQVFRY	0.6671 ± 0.0021
DPTPLKSLVTRP	0.64 ± 0.04

Sequence	protein stability index
GGGGGREPGCGP	0.707 ± 0.01
TLCCLFPIPSSS	0.699 ± 0.08
HSCPLLLAPPPS	0.608 ± 0.058
SLPFSPPTRSSL	0.758 ± 0.052
PPFPPDTLPLLP	0.746 ± 0.017
DVVLFQLGSELV	0.712 ± 0.013
KDKRNEGSGLCK	0.645 ± 0.022
SMGGRVGDLACQ	0.725 ± 0.042
AVVSRVPRLFRL	0.724 ± 0.045
PPTPPPVPPPWS	0.669 ± 0.044
LPAISSPIPPSL	0.701 ± 0.048
LGRPWRECIQIG	0.66 ± 0.015
VVGGAWTEAGGG	0.632 ± 0.035
FHSLTDSSPPGL	0.649 ± 0.022
KKVRTNTSKEIK	0.692 ± 0.15
LCSSSLRPFFPE	0.754 ± 0.024
YAGPCRRHSGGC	0.679 ± 0.082
AGCGGGVTASGA	0.688 ± 0.055
PSPPPTPPPPTP	0.793 ± 0.096
KNMNQIKKKNRE	0.664 ± 0.061
SFCCISSFPCWR	0.751 ± 0.016
FGLSVSSMSWNL	0.714 ± 0.0078
GEDRLSPVGWDR	0.702 ± 0.035
KGKKRKKKRNFR	0.68 ± 0.031
RLGALNHPLAAP	0.7183 ± 0.0057

Sequence	protein stability index
FDSVAVLYSGGV	0.66 ± 0.0078
QSPATIPFASHR	0.731 ± 0.014
PSHAAPVPAPQP	0.628 ± 0.079
IMSFTLLAPGQM	0.692 ± 0.019
ALPPSFPRPFSF	0.703 ± 0.036
GTTLDEPGESGR	0.621 ± 0.023
NALFDLAVMCLD	0.664 ± 0.028
GHRTIPHSNCLS	0.65 ± 0.0099
SLAGGSSAPSAS	0.673 ± 0.013
PLALLHSHPPAN	0.677 ± 0.0066
CVQGDGLSFYVL	0.737 ± 0.07
ALGQWGCAELHG	0.709 ± 0.0075
TKQIKKNKHKRA	0.727 ± 0.12
RCLGDLLARQTP	0.635 ± 0.012
YIGGMRSHYASP	0.734 ± 0.12
LPTPRRHFRPPP	0.657 ± 0.028
RLIEDREWLGSR	0.721 ± 0.014
GELLLVAGMHWL	0.681 ± 0.023
QLLCMSEPFVRE	0.699 ± 0.057
CVWSGHIWDLLF	0.764 ± 0.016
FSLVHSFRLSFC	0.599 ± 0.012
LLPRPSLDPSPP	0.682 ± 0.11
RLGLRWSPHSSP	0.707 ± 0.01
GGRPRGLVAGAA	0.657 ± 0.022
GFISVGVYPVVR	0.677 ± 0.0081

Sequence	protein stability index
NKKKNKKEEHVE	0.688 ± 0.047
CDHLSLCDDLFA	0.753 ± 0.065
PRRSPPCSTPPP	0.726 ± 0.077
CFSFLEYCTSLP	0.704 ± 0.012
DRNKINYYKGGI	0.694 ± 0.031
RDSERTSGAMLS	0.689 ± 0.031
GLRFVPLPLRPV	0.73 ± 0.029
SWGHTGTLRNDI	0.747 ± 0.035
GRGVGCVRRVGG	0.676 ± 0.059
VGWQGRWWVWGG	0.5679 ± 0.005
MIASGGGGEAAY	0.742 ± 0.081
GWLGGGGVVWWG	0.718 ± 0.017
RGFRPLGSGILI	0.689 ± 0.051
TYLSAWQFCVAS	0.579 ± 0.049
SVPSRSSAALCS	0.714 ± 0.067
VPVMVVCVPSKE	0.715 ± 0.035
FESRDMVGWFGG	0.674 ± 0.019
GESAWWRSFGDV	0.791 ± 0.11
GGGWGRVALGQG	0.612 ± 0.015
PPPYPRSTPFVP	0.6774 ± 0.005
YSWRAKGVKRLR	0.659 ± 0.029
TPHNQPKPTPPC	0.698 ± 0.032
PGLPGHLPPLPL	0.62033 ± 0.00011
GIGLYMWRNSKW	0.796 ± 0.04
LGRKWDCLGRYV	0.637 ± 0.06

Sequence	protein stability index
TSPSPLPPLFFT	0.706 ± 0.0087
GGGGMGGCSDDG	0.742 ± 0.17
NKIKKKRTEPQP	0.66522 ± 7.3e-05
DQTKMKKIAKVE	0.655 ± 0.044
PPPAPLPLPAST	0.645 ± 0.019
NKRKSKKRNEIE	0.6701 ± 0.0054
SLGSISSATLLA	0.6117 ± 0.0026
HGLGSWGTFLGV	0.655 ± 0.021
PTPPPRPPLSPP	0.692 ± 0.046
GISGRPDGGRGG	0.658 ± 0.0071
MTSSYLCWDVIG	0.632 ± 0.071
PLVAGRVIVTLR	0.554 ± 0.011
CAGGLFAVVTPS	0.682 ± 0.043
KFWRCVVVGYGL	0.641 ± 0.099
STNNSGRPMSFL	0.664 ± 0.045
PPSFLLVCPRPP	0.6897 ± 0.0068
RVGWCPCTGDRR	0.663 ± 0.019
SLSPPPLSPSPP	0.627 ± 0.022
SCPQSSLASVYA	0.529 ± 0.029
LFQVRLVDLSRI	0.674 ± 0.049
LSPRPPSPPPPP	0.688 ± 0.011
SLSPGLPPVLLT	0.666 ± 0.0067
DPAIHPNYKVAG	0.701 ± 0.053
DVGGRGAGGGSA	0.672 ± 0.0076
CAEGMCCCRGVG	0.56 ± 0.013

Sequence	protein stability index
TACPPSTPSTAF	0.689 ± 0.033
MVRWGLGRVYGC	0.786 ± 0.1
FPPLCSSSPPLP	0.7131 ± 0.0069
LWCWVGGALCGG	0.742 ± 0.17
SRVARWRSPGCC	0.6474 ± 0.0012
SSTGRGRGCQEM	0.684 ± 0.0086
VWFGAGSYSFLC	0.5683 ± 0.0016
PPRPPPSPPLPP	0.696 ± 0.062
RAKGGFDPKCYS	0.749 ± 0.076
IMDHKSNSDKWI	0.7193 ± 0.0011
RVDAWLEGKTVR	0.734 ± 0.02
CYGYTESKNRLD	0.6524 ± 0.0046
TPLLRRHSFSRN	0.779 ± 0.021
PPPSLPPPSATA	0.689 ± 0.087
LPLPLLLFPPPH	0.677 ± 0.041
GDKQKKNEKNKE	0.681 ± 0.048
HYGQRKKEFRLT	0.73 ± 0.0075
PPATPPPPPPFL	0.68 ± 0.15
RRPQPPHKTAMP	0.701 ± 0.078
LLAPPLPAVPSF	0.731 ± 0.006
EETRLQEVNRIL	0.737 ± 0.033
GWMSGTPEFLGS	0.707 ± 0.025
ESAVHRTRRIPY	0.7888 ± 0.0046
EGYGPSVRYRRS	0.639 ± 0.084
WFCRFTGGRRLL	0.671 ± 0.044

Sequence	protein stability index
SNGVCVGGSESA	0.674 ± 0.082
PPSAPLPTLLHH	0.722 ± 0.094
APPPPPPPPPPP	0.63 ± 0.056
RGVDVWQGRTVP	0.6879 ± 0.0031
HSTPPSPAPPTA	0.675 ± 0.062
WGGGGGRGGMGG	0.693 ± 0.055
TLRPPPPPAFPP	0.719 ± 0.084
KEKYEQIDIGKN	0.719 ± 0.066
SPRQARSFLTSS	0.756 ± 0.026
GHGFPSLPLILS	0.57 ± 0.076
PLPCLPPAGSTP	0.818 ± 0.02
GKSGVTGAGEKR	0.681 ± 0.06
VWSWVDSFCRGG	0.744 ± 0.042
VDVSVLVGLNFV	0.797 ± 0.056
LPPFSSPLSSLR	0.693 ± 0.016
GLIRGFLRYPGM	0.691 ± 0.033
YGKENGNRNTGR	0.621 ± 0.014
SPPAPSLPTFPP	0.617 ± 0.096
ETKSDRHDRTGT	0.655 ± 0.015
RREKRPMKKGGR	0.6126 ± 0.002
AGFCFVALSLPL	0.629 ± 0.048
GGGGGGKEAVVR	0.649 ± 0.053
WGVGRDVVLWGA	0.895 ± 0.14
PNPTPYRRPCPP	0.6846 ± 0.0041
PLPPPLPLSSPP	0.67 ± 0.012

Sequence	protein stability index
LGMCGTCQREVG	0.708 ± 0.027
WGGGGGKEAVVR	0.6554 ± 0.0042
VKSMVCQGHLGI	0.722 ± 0.043
GGLNIGIGYSVG	0.643 ± 0.1
RGGVGRLEGCRG	0.684 ± 0.066
SSGALLLLTGFM	0.681 ± 0.013
VPFPHTHPLLTP	0.757 ± 0.054
GAVARFRERALS	0.525 ± 0.0098
PPPPPHPTSPFP	0.751 ± 0.048
GCAGRHRWVGEW	0.6649 ± 0.0027
ALGRRGPEDWSG	0.707 ± 0.031
VKESILVGRYDC	0.709 ± 0.016
PPPPPPLLPPPA	0.7302 ± 0.0037
DVYMWVVPNFTD	0.729 ± 0.037
RPSGFVGSDVRV	0.629 ± 0.071
SVLSPTLESLIF	0.681 ± 0.032
SISRPSEHHLTQ	0.673 ± 0.023
CARAGLGFRWVG	0.621 ± 0.031
PSPPPAVLPPPP	0.693 ± 0.039
GASGGGRGNLEV	0.727 ± 0.13
RLPPGATPYPPR	0.711 ± 0.013
